The values below come from patent US20230203202A1.

The target of assay [1] is poly-specificity reagent (PSR). The assay is described as follows: flow cytometry PSR assay on protein A beads; same quadrant without PSR: 0.025. In general terms: In flow cytometry, cells or beads pass a laser one at a time.
Assay [2] concerns the target poly-specificity reagent (PSR). Kind of assay: flow cytometry PSR assay on protein A beads; same quadrant without PSR: 0.
Assay [3] has as its target poly-specificity reagent (PSR). The assay is described as follows: flow cytometry PSR assay on protein A beads; same quadrant without PSR: 0.046.
Assay [4] has as its target poly-specificity reagent (PSR). The assay is described as follows: flow cytometry PSR assay on protein A beads; same quadrant without PSR: 9.17E-3.

For the substance Trastuzumab (antibody), in assay [1], the Q2 (Expression-FITC high, Binding-PE high), + PSR came to 0.37. Further, the Q3 (Expression-FITC low, Binding-PE high), + PSR in assay [2] stood at 0.049.
Rituximab (antibody): the Q2 (Expression-FITC high, Binding-PE high), + PSR in assay [3] turned out to be 69.8. Moreover, the Q3 (Expression-FITC low, Binding-PE high), + PSR in assay [4] stood at 0.82.
